{"source": "paper PMC9002759", "about": "“The Sunflower WRINKLED1 Transcription Factor Regulates Fatty Acid Biosynthesis Genes through an AW Box Binding Sequence with a Particular Base Bias”", "binders": {"B1": {"name": "FATA1 AW box 24 bp (dsDNA)", "DNA 1": "CAGTCCTCGTGCATATCGGAGTCT", "DNA 2": "AGACTCCGATATGCACGAGGACTG"}}, "target": "HaWRI1_DBD (6-His-TRX-WRI1_DBD) (Helianthus annuus (CAS-6 line), UniProt X2BZR1 51-229)", "sequence (X2BZR1 entry or part of it)": "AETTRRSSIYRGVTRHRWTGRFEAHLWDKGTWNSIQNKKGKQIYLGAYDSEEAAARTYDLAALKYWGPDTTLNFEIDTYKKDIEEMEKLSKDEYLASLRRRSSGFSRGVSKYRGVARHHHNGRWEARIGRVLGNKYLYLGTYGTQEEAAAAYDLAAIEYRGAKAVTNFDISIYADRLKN", "assay": "EMSA; polydIdC; 20 mM Tris-HCl pH 8.0, 250 mM NaCl, 2 mM MgCl2, 1% glycerol, 1 mM DTT, 1 mg/mL BSA, 30 min room temperature, gels at 4 °C; DIG EMSA plus 0.05 µg/µL polydIdC", "settings": "protein: recombinant; tags: N-terminal 6xHis-thioredoxin fusion; label: digoxigenin; blunt"}
{"binder": "B1", "values": [{"measurement": "binding result", "value": "binds"}]}
